Assay results published in patent publication US20160257710A1, “SELECTIVE INHIBITORS OF PROTEINASE 3” (INSERM (INSTITUT NATIONAL DE LA SANTÉ ET LA RECHERCHE …, priority 2013, published 2016).
Changes are numbered by the printed parent chain. Where no end group is shown, it is not given here. [ ]: non-standard residue; d: D form. AlaP = not defined here

Experiments:
Assay type in all cases: biochemical
HNE = molecular target: T1, HNE (Homo sapiens, UniProt P08246); test: Inhibition of protease activity in crude lung secretions of patients (IPF, cystic fibrosis); conditions: 30 min incubation, IPF and CF samples
T1 sequence (P08246 30-267): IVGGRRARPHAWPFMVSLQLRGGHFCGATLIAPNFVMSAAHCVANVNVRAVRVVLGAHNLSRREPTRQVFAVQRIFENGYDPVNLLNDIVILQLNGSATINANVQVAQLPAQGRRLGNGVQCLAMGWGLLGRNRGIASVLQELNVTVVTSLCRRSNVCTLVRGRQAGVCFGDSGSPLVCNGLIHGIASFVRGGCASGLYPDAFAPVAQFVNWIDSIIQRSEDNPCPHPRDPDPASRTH

PR3I217R = molecular target: T2, PR3I217R (Homo sapiens, UniProt P24158, I221R); test: Residual activity of recombinant PR3 mutant in presence of increasing amounts of compound
T2 construct: made in house; host or cells: Drosophila S2 cells
T2 sequence (P24158 28-248 I221R limits assumed): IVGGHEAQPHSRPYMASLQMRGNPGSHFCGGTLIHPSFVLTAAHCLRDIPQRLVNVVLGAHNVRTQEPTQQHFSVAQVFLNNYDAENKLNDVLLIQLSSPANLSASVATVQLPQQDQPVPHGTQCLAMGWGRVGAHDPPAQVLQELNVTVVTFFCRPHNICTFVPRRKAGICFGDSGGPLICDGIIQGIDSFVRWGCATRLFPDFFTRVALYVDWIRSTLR
Protocol: (§1) Recombinant PR3K99L and […] were produced in Drosophila S2 cells using the calcium phosphate method, and stable cell lines were selected using puromycin. Proteins were purified by affinity chromatography on Chelating Sepharose and analyzed by SDS-PAGE. The total protein concentration was determined with a BCA Protein Assay
(§2) Phosphonate inhibitors and their biotinylated and fluorescent derivatives were synthesized, purified and controlled by mass spectrometry as reported. Their purity was checked by HPLC (data not shown). Purified Ac-Asp-Tyr-Asp-Ala^P(O—C6H4-4-Cl)2 (compound 1) and Ac-Pro-Tyr-Asp-Ala^P(O—C6H4-4-Cl)2 (compound 2) were first assayed for their inhibitory properties by measuring the residual activity of the human neutrophil serine proteases PR3, HNE and CatG in the presence of increasing amounts of each compound. We used for this purpose the FRET substrates that we developed previously for each protease (18). An almost complete inhibition of PR3 (1 nM final) was obtained after a 30 min incubation time with 20 μM of compound 1 (FIG. 1) and 0.3 μM of compound 2 (FIG. 2). Recombinant PR3K99L, […], HNE and CatG were used in the same experimental conditions. […] This emphasizes the importance of the S2 and S4 subsites to discriminate between PR3 and HNE specificities. Significant inhibition of HNE was obtained using about 100 times more Ac-Pro-Tyr-Asp-Ala^P(O—C6H4-4-Cl)2 than required to inhibit PR3. […] We confirmed this observation kinetically by measuring the second order rate constants kobs/l by competition experiments between the PR3 substrate and each inhibitor (17). As expected the second order rate constant kobs/l for compound 2 was about 100 times greater than that for compound 1 (see Table 1).

PR3K99L = molecular target: T3, PR3K99L (Homo sapiens, UniProt P24158, K115L); test: as above; conditions: Lys99 replaced by Leu in S2 subsite
T3 construct: made in house; host or cells: Drosophila S2 cells
T3 sequence (P24158 28-248 K115L limits assumed): T2 sequence (P24158 28-248 I221R limits assumed) with K88L, R194I
Protocol: as §1, §2

HNE activity in crude lung secretions (HNE): remained unchanged | inhibition of the Ile217 to Arg217 PR3 mutant compared with PR3K99L (PR3I217R): more efficient toward this mutant | sensitivity of PR3K99L to inhibition compared with wt PR3 (PR3K99L): far less sensitive to inhibition
Substance: Ac-Pro-Tyr-Asp-Ala^P(O—C6H4-4-Cl)2 (Ac-PYD[AlaP]; not fully specified (C-terminus); printed as Ac-Pro-Tyr-Asp-Ala^P(O—C6H4-4-Cl)2; reading uncertain; also: C-terminal Ala as phosphonate analogue (Ala^P)) [Compound 2]
